Data: patent US20100015126A1, “Methods of Binding of Cross-Beta Structures By Chaperones” (priority 2006, published 2010)

B1: Immunoglobulin heavy constant gamma 3 (G3m marker)/Ig gamma-3 chain C region (Heavy chain disease protein, HDC) (protein)
chain: ASTKGPSVFPLAPCSRSTSGGTAALGCLVKDYFPEPVTVSWNSGALTSGVHTFPAVLQSSGLYSLSSVVTVPSSSLGTQTYTCNVNHKPSNTKVDKRVELKTPLGDTTHTCPRCPEPKSCDTPPPCPRCPEPKSCDTPPPCPRCPEPKSCDTPPPCPRCPAPELLGGPSVFLFPPKPKDTLMISRTPEVTCVVVDVSHEDPEVQFKWYVDGVEVHNAKTKPREEQYNSTFRVVSVLTVLHQDWLNGKEYKCKVSNKALPAPIEKTISKTKGQPREPQVYTLPPSREEMTKNQVSLTCLVKGFYPSDIAVEWESSGQPENNYNTTPPMLDSDGSFFLYSKLTVDKSRWQQGNIFSCSVMHEALHNRFTQKSLSLSPGK
B2: CDNA FLJ90170 fis, clone MAMMA1000370, highly similar to Ig alpha-1 chain C region/Immunoglobulin heavy constant alpha 1 (protein, UniProt P01876 1-398, looked up)
Immunoglobulin heavy constant …: ASPTSPKVFPLSLCSTQPDGNVVIACLVQGFFPQEPLSVTWSESGQGVTARNFPPSQDASGDLYTTSSQLTLPATQCLAGKSVTCHVKHYTNPSQDVTVPCPVPSTPPTPSPSTPPTPSPSCCHPRLSLHRPALEDLLLGSEANLTCTLTGLRDASGVTFTWTPSSGKSAVQGPPERDLCGCYSVSSVLPGCAEPWNHGKTFTCTAAYPESKTPLTATLSKSGNTFRPEVHLLPPPSEELALNELVTLTCLARGFSPKDVLVRWLQGSQELPREKYLTWASRQEPSQGTTTFAVTSILRVAAEDWKKGDTFSCMVGHEALPLAFTQKTIDRLADWQMPPPYVVLDLPQETLEEETPGANLWPTTITFLTLFLLSLFYSTALTVTSVRGPSGNREGPQY
B3: Complement factor H-related protein 3 precursor/Complement factor H-related 3 (FHR-3, H factor-like protein 3, DOWN16)/Complement factor H-related 3, isoform CRA_c (protein)
chain: QVKPCDFPDIKHGGLFHENMRRPYFPVAVGKYYSYYCDEHFETPSGSYWDYIHCTQNGWSPAVPCLRKCYFPYLENGYNQNYGRKFVQGNSTEVACHPGYGLPKAQTTVTCTEKGWSPTPRCIRVRTCSKSDIEIENGFISESSSIYILNKEIQYKCKPGYATADGNSSGSITCLQNGWSAQPICINSSEKCGPPPPISNGDTTSFLLKVYVPQSRVEYQCQPYYELQGSNYVTCSNGEWSEPPRCIHPCIITEENMNKNNIKLKGRSDRKYYAKTGDTIEFMCKLGYNANTSILSFQAVCREGIVEYPRCE
B4: V1-3 protein (Fragment) (protein)
chain: QSALTQPRSVSGSPGQSVTISCTGTSSDVGGYNYVSWYQQHPGKAPKLMIYDVSKRPSGVPDRFSGSKSGNTASLTISGLQAEDEADYYCCSYAGSYTFH
B5: Immunoglobulin heavy constant mu/Full-length cDNA clone CS0DD006YL02 of Neuroblastoma of Homo sapiens (protein, UniProt P01871 1-474, looked up)
Immunoglobulin heavy constant …: GSASAPTLFPLVSCENSPSDTSSVAVGCLAQDFLPDSITFSWKYKNNSDISSTRGFPSVLRGGKYAATSQVLLPSKDVMQGTDEHVVCKVQHPNGNKEKNVPLPVIAELPPKVSVFVPPRDGFFGNPRKSKLICQATGFSPRQIQVSWLREGKQVGSGVTTDQVQAEAKESGPTTYKVTSTLTIKESDWLGQSMFTCRVDHRGLTFQQNASSMCVPDQDTAIRVFAIPPSFASIFLTKSTKLTCLVTDLTTYDSVTISWTRQNGEAVKTHTNISESHPNATFSAVGEASICEDDWNSGERFTCTVTHTDLPSPLKQTISRPKGVALHRPDVYLLPPAREQLNLRESATITCLVTGFSPADVFVQWMQRGQPLSPEKYVTSAPMPEPQAPGRYFAHSILTVSEEEWNTGETYTCVVAHEALPNRVTERTVDKSTEGEVSADEEGFENLWATASTFIVLFLLSLFYSTTVTLFKVK
B6: Dapper homolog 1 (hDPR1) (Heptacellular carcinoma novel gene 3)/Dapper, antagonist of beta-catenin, homolog 1 (Xenopus laevis) (protein)
chain: MKPSPAGTAKELEPPAPARGEQRTAEPEGRWREKGEADTERQRTRERQEATLAGLAELEYLRQRQELLVRGALRGAGGAGAAAPRAGELLGEAAQRSRLEEKFLEENILLLRKQLNCLRRRDAGLLNQLQELDKQISDLRLDVEKTSEEHLETDSRPSSGFYELSDGASGSLSNSSNSVFSECLSSCHSSTCFCSPLEATLSLSDGCPKSADLIGLLEYKEGHCEDQASGAVCRSLSTPQFNSLDVIADVNPKYQCDLVSKNGNDVYRYPSPLHAVAVQSPMFLLCLTGNPLREEDRLGNHASDICGGSELDAVKTDSSLPSPSSLWSASHPSSSKKMDGYILSLVQKKTHPVRTNKPRTSVNADPTKGLLRNGSVCVRAPGGVSQGNSVNLKNSKQACLPSGGIPSLNNGTFSPPKQWSKESKAEQAESKRVPLPEGCPSGAASDLQSKHLPKTAKPASQEHARCSAIGTGESPKESAQLSGASPKESPSRGPAPPQENKVVQPLKKMSQKNSLQGVPPATPPLLSTAFPVEERPALDFKSEGSSQSLEEAHLVKAQFIPGQQPSVRLHRGHRNMGVVKNSSLKHRGPALQGLENGLPTVREKTRAGSKKCRFPDDLDTNKKLKKASSKGRKSGGGPEAGVPGRPAGGGHRAGSRAHGHGREAVVAKPKHKRTDYRRWKSSAEISYEEALRRARRGRRENVGLYPAPVPLPYASPYAYVASDSEYSAECESLFHSTVVDTSEDEQSNYTTNCFGDSESSVSEGEFVGESTTTSDSEESGGLIWSQFVQTLPIQTVTAPDLHNHPAKTFVKIKASHNLKKKILRFRSGSLKLMTTV
B7: CD5 antigen-like precursor (SP-alpha, CT-2, IgM-associated peptide)/CD5 molecule-like (protein)
chain: SPSGVRLVGGLHRCEGRVEVEQKGQWGTVCDDGWDIKDVAVLCRELGCGAASGTPSGILYEPPAEKEQKVLIQSVSCTGTEDTLAQCEQEEVYDCSHDEDAGASCENPESSFSPVPEGVRLADGPGHCKGRVEVKHQNQWYTVCQTGWSLRAAKVVCRQLGCGRAVLTQKRCNKHAYGRKPIWLSQMSCSGREATLQDCPSGPWGKNTCNHDEDTWVECEDPFDLRLVGGDNLCSGRLEVLHKGVWGSVCDDNWGEKEDQVVCKQLGCGKSLSPSFRDRKCYGPGVGRIWLDNVRCSGEEQSLEQCQHRFWGFHDCTHQEDVAVICSG
B8: Hypothetical protein DKFZp686I04196 (Fragment)/Immunoglobulin heavy constant gamma 2 (G2m marker)/Ig gamma-2 chain C region (protein)
chain: ASTKGPSVFPLAPCSRSTSESTAALGCLVKDYFPEPVTVSWNSGALTSGVHTFPAVLQSSGLYSLSSVVTVPSSNFGTQTYTCNVDHKPSNTKVDKTVERKCCVECPPCPAPPVAGPSVFLFPPKPKDTLMISRTPEVTCVVVDVSHEDPEVQFNWYVDGVEVHNAKTKPREEQFNSTFRVVSVLTVVHQDWLNGKEYKCKVSNKGLPAPIEKTISKTKGQPREPQVYTLPPSREEMTKNQVSLTCLVKGFYPSDISVEWESNGQPENNYKTTPPMLDSDGSFFLYSKLTVDKSRWQQGNVFSCSVMHEALHNHYTQKSLSLSPGK
B9: Ig lambda chain V-III region SH (protein)
chain: SELTQDPAVSVALGQTVRITCQGDSLRSYYASWYQQKPGQAPVLVIYGKNNRPSGIPDRFSGSSSGNTASLTITGAQAEDEADYYCNSRDSS

The molecules below were run against T1, BiP-Sepharose (Homo sapiens, UniProt P11021) (assay: BiP-Sepharose extraction of proteins from patient plasma, serum, synovial fluid and mass-spectrometric identification). Details: Sample B2: eluate of BiP-Sepharose contacted with AL amyloidosis patient I plasma.
T1 construct: The human BiP gene except the signal peptide encoding region was obtained from Geneart (Germany); linker […]; made in house; host or cells: HEK 293E cells, transient transfection, PABC674 vector; secreted into the medium
Assay type: binding
Method: BiP was coated on CNBr-Sepharose (GE-Healthcare, Amersham Biosciences). Immobilization of BiP was performed essentially as described elsewhere in this application for NHS-Sepharose. CNBr-matrix was dissolved at 200 mg/ml in 1 mM HCl and treated the same as the NHS-matrix, except for an additional 5 minutes activation step in 1 mM HCl on a roller device before washing in this buffer. BiP was diluted in immobilization buffer (50 mM NaCl and 40 mM NaHCO3) to a concentration of 820 μg/ml. A total volume of 2 ml BiP solution (1640 μg BiP) was incubated with 360 mg beads. Negative control matrix was exposed to immobilization buffer, only. After overnight immobilization matrix was blocked with Tris and washed.
Six samples were incubated with the BiP-Sepharose, IgIV-Sepharose and the control-Sepharose: Normal pooled plasma, plasma of a patient I or of a patient II, with AL amyloidosis, serum of a patient III with RA (Rheumatoid Factor (RF) titer 682), control serum and synovial fluid of a patient IV with RA (RF titer 23). All samples were diluted 20× in HBS and applied to 200 μl beads in two volumes of 500 μl. One volume was incubated for 4 h at RT and supernatant was discarded after centrifugation (2 minutes at 1400 rpm). Subsequently, the second volume was applied to the same matrix and incubated overnight on a roller device at 4° C. […] To collect the eluates, the matrices were centrifuged and the two eluates were pooled for each sample.
Protein digests were desalted as described (Rappsilber et al., 2003), vacuum dried and dissolved in 2.5% formic acid.
For analysis of peptide mixtures, an Agilent 1100 HPLC system (Agilent Technologies) connected to a Thermo Finnigan LTQ-MS (Thermo Electron, Bremen, Germany) was used. Protein digests were injected on a trap column (Reprosil C18 RP (Dr Maisch, Germany), 20 mm×100 μm I.D.) at 5 μl/minute. Subsequently, the peptides were transferred with a split-reduced flow rate of 100 nL/minute solvent A (0.1 M acetic acid) on the analytical column (Reprosil C18 RP, 20 cm×50 μm I.D.). […] The column effluent was directly introduced into the ESI source of the mass spectrometer via a butt-connected nano-ESI emitter (New Objectives, Woburn, Mass.). The mass spectrometer was operated in the positive ion mode and parent ions were selected for fragmentation in data-dependent mode.
After mass spectrometric measurements, peak lists were generated using BioWorks software (Thermo Electron, Bremen, Germany). Protein identification was performed using Mascot software (www.matrixscience.com) by searching the IPIhuman database (version 3.24, downloaded from ftp://ftp.ebi.ac.uk/pub/databases/IPI/current) using the following settings: fully tryptic peptides, peptide tolerance 0.8 Da, MS/MS tolerance 0.9 Da, 1 missed cleavage allowed, carbamidomethyl (Cys) and oxidation (Met) as fixed and variable modification, respectively. The Scaffold software package (www.proteomesoftware.com) was used to parse the data and to filter peptides at a confidence level of 95%, allowing only protein identification with at least 2 peptides identified.

T1 sequence (P11021 19-654): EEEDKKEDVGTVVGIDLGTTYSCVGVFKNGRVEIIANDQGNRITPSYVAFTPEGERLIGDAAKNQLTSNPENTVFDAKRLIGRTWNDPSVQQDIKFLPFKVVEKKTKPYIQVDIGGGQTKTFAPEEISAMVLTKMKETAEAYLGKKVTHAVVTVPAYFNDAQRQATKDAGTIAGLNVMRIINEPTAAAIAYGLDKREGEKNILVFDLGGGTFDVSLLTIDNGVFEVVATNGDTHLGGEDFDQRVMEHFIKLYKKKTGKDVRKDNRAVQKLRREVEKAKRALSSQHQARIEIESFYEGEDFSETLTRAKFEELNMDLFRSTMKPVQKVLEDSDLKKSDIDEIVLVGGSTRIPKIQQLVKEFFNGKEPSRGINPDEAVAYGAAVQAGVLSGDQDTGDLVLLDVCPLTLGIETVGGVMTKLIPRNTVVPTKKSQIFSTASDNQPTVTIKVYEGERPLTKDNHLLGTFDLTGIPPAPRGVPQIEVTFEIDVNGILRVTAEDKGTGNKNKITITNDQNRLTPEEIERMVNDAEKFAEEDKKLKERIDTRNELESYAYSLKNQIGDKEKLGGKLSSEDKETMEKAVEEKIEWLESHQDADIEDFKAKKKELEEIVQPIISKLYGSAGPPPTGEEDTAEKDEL

# of peptides in sample A#	Molecule
2	B1

Same assay, conditions: Sample B3: eluate of BiP-Sepharose contacted with AL amyloidosis patient II plasma

# of peptides in sample A#	Molecule
2	B2
2	B1
1	B3
2	B4
4	B5

Same assay, conditions: Sample B4: eluate of BiP-Sepharose contacted with RA patient III serum

# of peptides in sample A#	Molecule
2	B6
17	B2
1	B7
1	B4
10	B5
14	B8
2	B9
